This is an account of results in patent US20240360195A1 (HELMHOLTZ ZENTRUM M NCHEN DEUTSCHES FORSCHUNGSZENTRUM F R …, published 2024).

This test deals with T1, human carbonic anhydrase XII (CA12) on A549 lung cancer cells (human, UniProt O43570 25-354).
T1 construct: whole, on cells; No recombinant protein was used; also called CA-XII; CA XII
Briefly: flow cytometry on A549 cells, serial dilution, Cy5-labeled donkey anti-human IgG secondary, pH 7.4. The procedure:
50.000 A549 cells were incubated with a serial dilution of Monomers or Dimers (6A10). After washing, cells were incubated with a Cy5-labeled secondary antibody (donkey anti-human IgG light and heavy chain). Binding of the secondary antibody was analyzed with a BD FACSCanto and the DIVA software. RU=relative light units.
After washing, cells were incubated with a Cy5-labeled secondary antibody (donkey anti-human IgG light and heavy chain). Binding of the secondary antibody was analyzed with a BD FACSCanto and the DIVA software. RU=relative light units.
CA12-positive A549 cells were incubated with different amounts of Fab6A10 dimers or Fab6A 10 monomers at the indicated pH, followed by an incubation of a suitable Cy5-labeled secondary antibody at neutral pH (approx. 7.2).

T1 sequence (O43570 25-354): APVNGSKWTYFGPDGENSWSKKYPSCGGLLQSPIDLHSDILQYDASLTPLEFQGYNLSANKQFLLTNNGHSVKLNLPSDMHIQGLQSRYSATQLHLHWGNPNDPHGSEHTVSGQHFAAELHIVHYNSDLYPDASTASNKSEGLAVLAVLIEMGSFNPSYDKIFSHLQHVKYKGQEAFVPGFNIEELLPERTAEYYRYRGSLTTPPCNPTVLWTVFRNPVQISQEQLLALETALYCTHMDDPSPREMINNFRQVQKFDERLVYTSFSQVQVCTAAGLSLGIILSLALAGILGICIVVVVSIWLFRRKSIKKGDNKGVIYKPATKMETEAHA

B1: Fab6A10 dimer (other)
heavy: QVQLKESGPGLVQPSETLSLTCTVSGFSLTTYSVSWVRQPSGKGPEWMGRMWYDGDTVYNSALKSRLSISRDTSKNQVFLKMNSLETDETGTYYCTRDFGYFDGSSPFDYWGQGVMVTVSSASTKGPSVFPLAPSSKSTSGGTAALGCLVKDYFPEPVTVSWNSGALTSGVHTFPAVLQSSGLYSLSSVVTVPSSSLGTQTYICNVNHKPSNTKVDKKVEPKSCDKTHT
light: RCPVDIVLTQSPATLSVTPGESVSLSCRASQGISTSIHWYQQKSNESPRLLIKFASQSISGIPSRFSGSGSGTDFTLSINRVESEDFSVYFCQQTYSLPYTFGAGTKLELKRTVAAPSVFIFPPSDEQLKSGTASVVCLLNNFYPREAKVQWKVDNALQSGNSQESVTEQDSKDSTYSLSSTLTLSKADYEKHKVYACEVTHQGLSSPVTKSFNRGEC
modifications: additional non-naturally occurring cysteine at the N-terminus of the VL region (N-terminus RCPVDIVLTQ..., SEQ ID NO: 18) forms a disulfide bond with the same cysteine of the second Fab monomer
notes: also called 6A10 Fab dimers; 6A10Fab dimers
In the case of B1, the binding result is recorded as “binds”.
